The data set has as its system Escherichia coli TOP10. The experiment in a line: shrunken log2 fold change of peptide-encoding DNA abundance (4.5 h post-induction vs induction); higher = less antimicrobial activity (less host growth inhibition). The following applies: time post-induction: 4.5 h; library: site-saturation at positions 5, 18, 19, 20.
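Also: peptides expressed intracellularly from a pBAD plasmid library in pooled LB shake-flask culture, induced with 0.3% L-arabinose, DNA abundance read by NGS, three biological replicates, DESeq2 with apeglm shrinkage.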

As for RRIRSRPPRLPRPRPRPQAGPRP, the “shrunken log2 fold change” value was 0.165.
As to RRIRMRPPRLPRPRPRPTKLPRP, the “shrunken log2 fold change” value amounted to 0.287.
Take RRIRKRPPRLPRPRPRPPQMPRP: the “shrunken log2 fold change” value turned out to be 0.278.
In the case of RRIRFRPPRLPRPRPRPWNGPRP, the “shrunken log2 fold change” value was determined as 0.228.
As for RRIRMRPPRLPRPRPRPNPSPRP, the “shrunken log2 fold change” value was determined as 0.758.
As for RRIRARPPRLPRPRPRPSFVPRP, the “shrunken log2 fold change” value is 0.0934.
For the sequence RRIRERPPRLPRPRPRPMIVPRP, the “shrunken log2 fold change” value was -0.477.
Consider RRIRMRPPRLPRPRPRPMAKPRP, for which the “shrunken log2 fold change” value worked out at 0.245.
Take RRIRFRPPRLPRPRPRPHITPRP: the “shrunken log2 fold change” value was -0.734.
Turning to RRIRCRPPRLPRPRPRPSIHPRP, the “shrunken log2 fold change” value is -0.929.
The figure for RRIRPRPPRLPRPRPRPWPAPRP is 0.0589.
In the case of RRIRVRPPRLPRPRPRPYNNPRP, the “shrunken log2 fold change” value was -1.16.
The figure for RRIRRRPPRLPRPRPRPHESPRP is 0.0784.
For RRIRFRPPRLPRPRPRPHIYPRP, the “shrunken log2 fold change” value is -1.22.
The figure for RRIRDRPPRLPRPRPRPSGYPRP is 0.0153; for RRIRFRPPRLPRPRPRPEDVPRP it is -0.0294.
As for RRIRKRPPRLPRPRPRPKLPPRP, the figure is 0.244.
For the sequence RRIRMRPPRLPRPRPRPWVKPRP, the “shrunken log2 fold change” value was -0.00556.
RRIRKRPPRLPRPRPRPQSTPRP: the “shrunken log2 fold change” value was -0.0185.
As for RRIRRRPPRLPRPRPRPWYQPRP, the figure is -3.03; as for RRIRCRPPRLPRPRPRPDSDPRP, -0.0612; as for RRIRLRPPRLPRPRPRPMSIPRP, -0.159.
Regarding RRIRGRPPRLPRPRPRPRRDPRP, the “shrunken log2 fold change” value is 0.424.
For RRIRPRPPRLPRPRPRPHLYPRP, the “shrunken log2 fold change” value is -0.192.
Consider RRIRWRPPRLPRPRPRPGSTPRP, for which the “shrunken log2 fold change” value stood at 0.161.
For RRIRQRPPRLPRPRPRPFQVPRP, the “shrunken log2 fold change” value worked out at 0.0303.
Regarding RRIRWRPPRLPRPRPRPPGDPRP, the “shrunken log2 fold change” value was 0.88.
Consider RRIRDRPPRLPRPRPRPAWHPRP, for which the “shrunken log2 fold change” value turned out to be 0.2.
Consider RRIRNRPPRLPRPRPRPFHNPRP, for which the “shrunken log2 fold change” value was -0.12.
In the case of RRIRPRPPRLPRPRPRPVTFPRP, the “shrunken log2 fold change” value is -0.186.
Regarding RRIRQRPPRLPRPRPRPMFWPRP, the “shrunken log2 fold change” value was found to be 0.0915.
Regarding RRIRVRPPRLPRPRPRPDHKPRP, the “shrunken log2 fold change” value was -0.0198.
For RRIRWRPPRLPRPRPRPHSIPRP, the “shrunken log2 fold change” value is -0.143.
For the sequence RRIRMRPPRLPRPRPRPKKRPRP, the “shrunken log2 fold change” value turned out to be 2.01.
For RRIRERPPRLPRPRPRPAKYPRP, the “shrunken log2 fold change” value was -0.274.
On to RRIRDRPPRLPRPRPRPTICPRP, for which the “shrunken log2 fold change” value was -0.232.
The figure for RRIRQRPPRLPRPRPRPSRKPRP is 0.111.
Regarding RRIRSRPPRLPRPRPRPRTLPRP, the “shrunken log2 fold change” value is 0.128.
Take RRIRLRPPRLPRPRPRPNMYPRP: the “shrunken log2 fold change” value is -0.284.
As for RRIRWRPPRLPRPRPRPINEPRP, the figure is 0.402.
Turning to RRIRARPPRLPRPRPRPFLTPRP, the “shrunken log2 fold change” value was 0.085.
As for RRIRQRPPRLPRPRPRPSEHPRP, the figure is -0.195; as for RRIRKRPPRLPRPRPRPPTPPRP, 0.796; as for RRIRQRPPRLPRPRPRPQRRPRP, 0.0498.
As for RRIRARPPRLPRPRPRPDSIPRP, the “shrunken log2 fold change” value is -0.0582.
Consider RRIRFRPPRLPRPRPRPRIAPRP, for which the “shrunken log2 fold change” value turned out to be 0.214.
The figure for RRIRKRPPRLPRPRPRPSMKPRP is -0.212.
Turning to RRIRTRPPRLPRPRPRPWLAPRP, the “shrunken log2 fold change” value stood at 0.216.
As to RRIRYRPPRLPRPRPRPFPRPRP, the “shrunken log2 fold change” value was -0.0964.
Turning to RRIRKRPPRLPRPRPRPGHSPRP, the “shrunken log2 fold change” value was -0.0124.
In the case of RRIRYRPPRLPRPRPRPVGCPRP, the “shrunken log2 fold change” value is -0.284.
As for RRIRDRPPRLPRPRPRPKLGPRP, the figure is -0.000429; as for RRIRPRPPRLPRPRPRPQRAPRP, 0.381; as for RRIRERPPRLPRPRPRPTGMPRP, -0.128.
As for RRIRQRPPRLPRPRPRPPEPPRP, the “shrunken log2 fold change” value was found to be 0.834.
Take RRIRARPPRLPRPRPRPAWQPRP: the “shrunken log2 fold change” value was 0.626.
Consider RRIRWRPPRLPRPRPRPRNQPRP, for which the “shrunken log2 fold change” value was found to be 0.145.
RRIRNRPPRLPRPRPRPVDTPRP: the “shrunken log2 fold change” value worked out at 0.033.
Turning to RRIRIRPPRLPRPRPRPKIGPRP, the “shrunken log2 fold change” value was -0.0343.
For the sequence RRIRRRPPRLPRPRPRPTRMPRP, the “shrunken log2 fold change” value is 1.08.
As for RRIRGRPPRLPRPRPRPLLSPRP, the figure is 1.04; as for RRIRRRPPRLPRPRPRPDGEPRP, -0.0341.
In the case of RRIRDRPPRLPRPRPRPYFKPRP, the “shrunken log2 fold change” value was -0.381.
Turning to RRIRYRPPRLPRPRPRPHENPRP, the “shrunken log2 fold change” value is -0.212.
RRIRGRPPRLPRPRPRPHIRPRP: the “shrunken log2 fold change” value was found to be 0.0682.
Turning to RRIRQRPPRLPRPRPRPSFHPRP, the “shrunken log2 fold change” value was -0.351.
Turning to RRIRQRPPRLPRPRPRPYVHPRP, the “shrunken log2 fold change” value is -0.258.
Regarding RRIRMRPPRLPRPRPRPPYPPRP, the “shrunken log2 fold change” value worked out at 0.134.
The figure for RRIRKRPPRLPRPRPRPTETPRP is 0.114; for RRIRARPPRLPRPRPRPIWAPRP it is 0.439.
RRIRCRPPRLPRPRPRPFDVPRP: the “shrunken log2 fold change” value was -0.479.
For RRIRVRPPRLPRPRPRPCCMPRP, the “shrunken log2 fold change” value is -0.181.
As for RRIRVRPPRLPRPRPRPFNEPRP, the “shrunken log2 fold change” value is -0.258.
As to RRIRFRPPRLPRPRPRPYQLPRP, the “shrunken log2 fold change” value was -0.573.
Regarding RRIRGRPPRLPRPRPRPAQPPRP, the “shrunken log2 fold change” value was 0.377.
For the sequence RRIRMRPPRLPRPRPRPRPYPRP, the “shrunken log2 fold change” value was 0.126.
For the sequence RRIRLRPPRLPRPRPRPSKKPRP, the “shrunken log2 fold change” value is -0.0524.
In the case of RRIRYRPPRLPRPRPRPNIWPRP, the “shrunken log2 fold change” value was -0.302.
Consider RRIRKRPPRLPRPRPRPDVMPRP, for which the “shrunken log2 fold change” value was -0.0462.
The figure for RRIRHRPPRLPRPRPRPDSMPRP is 0.0959.
With RRIRLRPPRLPRPRPRPERPPRP, the “shrunken log2 fold change” value was 0.157.
As for RRIRSRPPRLPRPRPRPTEQPRP, the “shrunken log2 fold change” value was -0.0196.
The figure for RRIRDRPPRLPRPRPRPAGSPRP is 0.19; for RRIRRRPPRLPRPRPRPCKMPRP it is -0.0577; for RRIRDRPPRLPRPRPRPGFGPRP it is 0.264.
Consider RRIRPRPPRLPRPRPRPLPGPRP, for which the “shrunken log2 fold change” value turned out to be 0.02.
On to RRIRNRPPRLPRPRPRPKYRPRP, for which the “shrunken log2 fold change” value is -0.0413.
Turning to RRIRARPPRLPRPRPRPDNPPRP, the “shrunken log2 fold change” value was 0.0396.
For RRIRTRPPRLPRPRPRPGSAPRP, the “shrunken log2 fold change” value was 0.362.
Turning to RRIRPRPPRLPRPRPRPLPQPRP, the “shrunken log2 fold change” value was 0.286.
With RRIRRRPPRLPRPRPRPTHNPRP, the “shrunken log2 fold change” value amounted to 0.695.
Turning to RRIRYRPPRLPRPRPRPLYLPRP, the “shrunken log2 fold change” value was -0.992.
In the case of RRIRVRPPRLPRPRPRPRLFPRP, the “shrunken log2 fold change” value was 0.447.
Take RRIRFRPPRLPRPRPRPEEWPRP: the “shrunken log2 fold change” value was -0.0208.
With RRIRWRPPRLPRPRPRPEQNPRP, the “shrunken log2 fold change” value turned out to be 0.117.
Regarding RRIRDRPPRLPRPRPRPHHWPRP, the “shrunken log2 fold change” value turned out to be 0.172.
As for RRIRKRPPRLPRPRPRPAASPRP, the “shrunken log2 fold change” value was 0.593.
RRIRHRPPRLPRPRPRPEYLPRP: the “shrunken log2 fold change” value amounted to 0.0871.
As for RRIRARPPRLPRPRPRPTNFPRP, the “shrunken log2 fold change” value was -0.0105.
In the case of RRIRPRPPRLPRPRPRPYLCPRP, the “shrunken log2 fold change” value was -0.504.
Turning to RRIRARPPRLPRPRPRPMTQPRP, the “shrunken log2 fold change” value was 0.249.
On to RRIRGRPPRLPRPRPRPVQTPRP, for which the “shrunken log2 fold change” value turned out to be 0.626.
Take RRIRRRPPRLPRPRPRPTVGPRP: the “shrunken log2 fold change” value came out at 0.0232.
Consider RRIRRRPPRLPRPRPRPNDKPRP, for which the “shrunken log2 fold change” value was -0.178.
For the sequence RRIRLRPPRLPRPRPRPWIPPRP, the “shrunken log2 fold change” value was -0.0167.
For RRIRFRPPRLPRPRPRPIGHPRP, the “shrunken log2 fold change” value was -0.115.
As for RRIRGRPPRLPRPRPRPECMPRP, the “shrunken log2 fold change” value turned out to be 1.49.
In the case of RRIRMRPPRLPRPRPRPKIWPRP, the “shrunken log2 fold change” value worked out at 0.704.
Turning to RRIRPRPPRLPRPRPRPESNPRP, the “shrunken log2 fold change” value worked out at 0.0165.
For RRIRRRPPRLPRPRPRPAVVPRP, the “shrunken log2 fold change” value was 0.518.
As for RRIRMRPPRLPRPRPRPVPAPRP, the “shrunken log2 fold change” value was 1.11.
Consider RRIRSRPPRLPRPRPRPWSMPRP, for which the “shrunken log2 fold change” value was -0.176.
Consider RRIRMRPPRLPRPRPRPTHCPRP, for which the “shrunken log2 fold change” value stood at 0.34.
Take RRIRSRPPRLPRPRPRPWGAPRP: the “shrunken log2 fold change” value came out at 0.0522.
Turning to RRIRTRPPRLPRPRPRPNQQPRP, the “shrunken log2 fold change” value worked out at 0.00192.
The figure for RRIRNRPPRLPRPRPRPCRDPRP is -0.0123.
Take RRIRFRPPRLPRPRPRPHYEPRP: the “shrunken log2 fold change” value is -0.0922.
As for RRIRPRPPRLPRPRPRPNHWPRP, the figure is -0.0328.
Turning to RRIRIRPPRLPRPRPRPPQHPRP, the “shrunken log2 fold change” value is -0.107.
The figure for RRIRVRPPRLPRPRPRPAHDPRP is 0.113.
On to RRIRARPPRLPRPRPRPPWLPRP, for which the “shrunken log2 fold change” value was 0.495.
As for RRIRSRPPRLPRPRPRPMHQPRP, the figure is -0.0538; as for RRIRGRPPRLPRPRPRPFSPPRP, 0.0723; as for RRIRSRPPRLPRPRPRPCGCPRP, -0.00437.
Take RRIRNRPPRLPRPRPRPPYQPRP: the “shrunken log2 fold change” value is -0.22.
